Assay results published in the supplement of paper PMC10567573.
± gives the standard deviation.

Assay: protein stability index of a GFP-peptide fusion (GPS, HEK-293T) (PSI 1-6); higher = more stable
[1] = treatment: DMSO, c terminus: a fixed tail appended
[2] = treatment: MLN4924 1 uM, 8 h, c terminus: a fixed tail appended
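Further: 24-mer peptide tiles fused after GFP, lentivirally expressed, FACS-sorted into six equal bins by GFP/DsRed ratio, decoded by Illumina sequencing, PSI is the read-weighted mean bin number.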

| Sequence | protein stability index (treatment: DMSO, c terminus: native) | protein stability index (treatment: MLN4924 1 uM, 8 h, c terminus: native) | protein stability index [1] | protein stability index [2] |
| --- | --- | --- | --- | --- |
| VAQTGILWLLMNNCFLNLSPRKP [GAGE1] | 2.71 ± 0.17 | 2.82 ± 1.2 |  |  |
| VARSGTPAVENKQQIGDAIRMIVR [PLK2] |  |  | 3 ± 0.22 | 3.09 ± 0.23 |
| VAVESMEPNNIVVLLQTSPYHVDS [TCF25] |  |  | 2.28 ± 0.38 | 2.13 ± 0.4 |
| VAVNGESVETLDHDSVVEMIRKGG [PDZK1] |  |  | 4.61 ± 0.27 | 4.59 ± 0.24 |
| VCINLPPPLTRQIAVKTLGIGKNV [GFOD1] |  |  | 2.23 ± 0.27 | 2.05 ± 0.19 |
| VCNINKGCGYGCQLHHVVYCFMIA [FUT8] |  |  | 2.89 ± 0.42 | 3.2 ± 0.68 |
| VCSQCGKVLEEGGFFEEKGAIFCP [PDLIM7] |  |  | 4.88 ± 0.22 | 4.81 ± 0.38 |
| VDGAGKPGAEEAQDPEGKGEQEHS [CHGA] |  |  | 5.56 ± 0.18 | 5.3 ± 0.11 |
| VDIKPANMEELTEVITAAEFHPHH [PPP2R2B] |  |  | 4.47 ± 0.34 | 4.42 ± 0.58 |
| VEKFIYENHPDVFSDSSMDHFQKF [MYOZ1] |  |  | 2.94 ± 0.2 | 3.09 ± 0.19 |
| VFFVCFVPYHIARIPYTKSQTEAH [P2RY14] |  |  | 3.57 ± 0.74 | 3.17 ± 0.35 |
| VFLPIVVLIFKSILFLPCLRKKIL [STEAP1] |  |  | 2.98 ± 0.78 | 2.98 ± 0.59 |
| VGRTGCFIVIDAMLERIKHEKTVD [PTPRD] |  |  | 2.25 ± 0.34 | 2.54 ± 0.26 |
| VILAVSYMSQVLEKEMKAQEQRLG [GMPPB] |  |  | 2.27 ± 0.42 | 2.08 ± 0.17 |
| VISCLEQGEEPWVQVSPEFKDSAG [ZNF75A] |  |  | 4.59 ± 0.11 | 4.68 ± 0.13 |
| VIVQLHKLRHLDISRDRLSSYYKF [ZER1] |  |  | 2.76 ± 0.63 | 2.56 ± 0.45 |
| VKKCIFLLFINHRLVESTSLRKAI [MLH1] |  |  | 3.14 ± 0.47 | 2.97 ± 0.73 |
| VKKLMRTSTPPPASVINNMLAEIF [ZBED1] |  |  | 2.2 ± 0.37 | 2.02 ± 0.21 |
| VKVPTTLAEYCIKTKVPSNDNSSD [UBE2R2] |  |  | 4.41 ± 0.21 | 4.63 ± 0.17 |
| VLKKLAQSRRTALATSPITVGDLG [YJU2B] |  |  | 2.614 ± 0.015 | 2.58 ± 0.24 |
| VLKTRFSYAFPKEFPYRMNHILEC [CCNC] |  |  | 2.59 ± 0.58 | 2.2 ± 0.24 |

| Sequence | protein stability index (treatment: DMSO, c terminus: native) | protein stability index (treatment: MLN4924 1 uM, 8 h, c terminus: native) | protein stability index [1] | protein stability index [2] |
| --- | --- | --- | --- | --- |
| VLLPETQKRQQLSEDTLTIHGLPT [C22orf31] |  |  | 3.73 ± 0.092 | 3.88 ± 0.3 |
| VLNPHPSLGYKEIRKGESRSEALA [CHGA] |  |  | 4.14 ± 0.19 | 4.5 ± 0.3 |
| VNDLRGSDSIAYDKGEKLLRCKLA [ADD1] |  |  | 3.34 ± 0.21 | 3.48 ± 0.48 |
| VNSDYETYMSADDLRINLWNFEIT [PPP2R2B] |  |  | 2.19 ± 0.23 | 2.4 ± 0.23 |
| VNVSDRGGRTALHHAALNGHVEMV [ANKRD44] |  |  | 3.39 ± 0.43 | 3.24 ± 0.093 |
| VPDSDIKALTTLCDLADRELVVII [ESRRG] |  |  | 2.53 ± 0.38 | 2.6 ± 0.45 |
| VPKVGQRFNRIGLPPKVGSFQLFV [PI4K2A] |  |  | 2.31 ± 0.78 | 2.34 ± 0.44 |
| VPPGDYLFQVVINPNFEVAESDYS [LOXL2] |  |  | 2.31 ± 0.37 | 2.12 ± 0.43 |
| VPRTLSPHQYHSVHGVGMVPEWSD [TBX5] |  |  | 3.62 ± 0.25 | 3.77 ± 0.16 |
| VQIRRLEAAGESLEEEIRRKQILL [ZC2HC1C] |  |  | 3.31 ± 0.37 | 3.45 ± 0.37 |
| VRCEALTGELETLKERCAQDACQA [CCDC89] |  |  | 4.43 ± 0.39 | 4.25 ± 0.18 |
| VRDMMANFHLNDLEAPHEDDAEGE [TCF25] |  |  | 5.48 ± 0.13 | 5.3 ± 0.31 |
| VRRLQALRLEREEYVLLKALALAN [ESRRA] |  |  | 2.18 ± 0.54 | 2.12 ± 0.31 |
| VRVLDMVAKLESECLKRQGQREPG [FBXO34] |  |  | 4.06 ± 0.29 | 4.17 ± 0.31 |
| VRYNAEKKKVGNYYTTPIYRFRMK [YJU2B] |  |  | 2.57 ± 0.17 | 2.86 ± 0.35 |
| VSAGGHTLSRPPPAQVPREVLKVQ [TFE3] |  |  | 3.95 ± 0.33 | 4.21 ± 0.11 |
| VSCPEGRADCASESACSSDSLDEA [PWWP2B] |  |  | 5.4 ± 0.38 | 5.41 ± 0.42 |
| VSDDLSSEEDGEARTQMILLRRSV [PHTF1] |  |  | 4.8 ± 0.17 | 5.08 ± 0.15 |
| VSFVIHNLPIIAKMAAVSKASGRF [SEPHS2] |  |  | 3.08 ± 0.29 | 2.75 ± 0.61 |
| VSGSWERDQQVEAAQRALVEVLGP [RETREG3] |  |  | 3.9 ± 0.33 | 4.08 ± 0.094 |
| VSLHQASLGGCSQDFLLFSPEVES [NFE2L1] |  |  | 2.06 ± 0.12 | 2.971 ± 0.02 |

| Sequence | protein stability index (treatment: DMSO, c terminus: native) | protein stability index (treatment: MLN4924 1 uM, 8 h, c terminus: native) | protein stability index [1] | protein stability index [2] |
| --- | --- | --- | --- | --- |
| VSMETYHVTLTLPPTQLEVNLEEI [C2CD2L] |  |  | 2.34 ± 0.35 | 2.27 ± 0.31 |
| VTEFILLGLTQNPEGQKVLFVTFL [OR4A15] |  |  | 2.96 ± 0.44 | 3.27 ± 0.29 |
| VTIPAGATHILVRQQGNPGHRSIY [ADAMTS4] |  |  | 2.51 ± 0.12 | 2.32 ± 0.52 |
| VTQEPRAKKGRRNQSVEPKKEEPE [ZMYND11] |  |  | 5.45 ± 0.24 | 5.6 ± 0.21 |
| VTVLEDLEKGLEPEPQVPGPAHGP [ZNF232] |  |  | 4.99 ± 0.27 | 4.874 ± 0.039 |
| VVGNWQYFFPVIFSKASDSLQLVF [MAGEA6] |  |  | 3.21 ± 0.34 | 3.32 ± 0.63 |
| VVQDSVNISGHTNTNTLKVPECRL [SPOPL] |  |  | 3.34 ± 0.25 | 3.56 ± 0.43 |
| VYTRHGVPISVTGIAQVKIQGQNK [FLOT1] |  |  | 2.72 ± 0.12 | 2.63 ± 0.39 |
| WEEAQSPANCPACREPSPKMDFKT [TRIM43] |  |  | 4.56 ± 0.076 | 4.83 ± 0.25 |
| WGGQEDREPAGRWKEGRPRVEESG [PBXIP1] |  |  | 4.79 ± 0.21 | 5.05 ± 0.099 |
| WGKGARGRLGRRDEDAGLPRPVQL [NEK8] |  |  | 3.37 ± 0.23 | 3.48 ± 0.32 |
| WGLEEEDFQPREEAMLYHNQTAEL [P3H4] |  |  | 4.61 ± 0.084 | 4.5 ± 0.48 |
| WGVFYYFVSALGITAGAHRLWSHR [SCD] |  |  | 3.38 ± 0.79 | 2.63 ± 0.62 |
| WILLAESNSADDETDDPRRYQKYG [OAS1] |  |  | 3.19 ± 0.17 | 3.32 ± 0.21 |
| WIQVTSLRIFVWLLLLYFMQVIAI [PHTF1] |  |  | 3.08 ± 0.43 | 2.93 ± 0.42 |
| WLHALHLRQKGNRNTHKDLLRFAQ [FEM1B] |  |  | 2.44 ± 0.52 | 2.35 ± 0.15 |
| WVFGTSFLPFLLCAVLLSAVQAQA [FADS1] |  |  | 3.09 ± 0.6 | 2.51 ± 0.12 |
| WVRSVSFSHDGLHVASLADDKMVR [WSB1] |  |  | 2.66 ± 0.4 | 3.54 ± 0.45 |
| WVYKNKLIFFGGYGYLPEDKVLGT [KLHDC2] |  |  | 2.55 ± 1.1 | 2.88 ± 1.4 |
| YARYHQAFADRDQSERQRHESQQL [TEKT4] |  |  | 2.83 ± 0.71 | 3.66 ± 0.64 |
| YCNFNKYIPRRLEEAAMQKCLVTE [RSAD1] |  |  | 2.32 ± 0.41 | 2.51 ± 0.38 |

| Sequence | protein stability index (treatment: DMSO, c terminus: native) | protein stability index (treatment: MLN4924 1 uM, 8 h, c terminus: native) | protein stability index [1] | protein stability index [2] |
| --- | --- | --- | --- | --- |
| YCYRCGNQAAIMELDDTLKYSFLQ [PPP2CA] |  |  | 2.74 ± 0.58 | 2.58 ± 0.5 |
| YDLWASDNPLDRPLVGQDEFFLEQ [NOP53] |  |  | 4.31 ± 0.13 | 3.69 ± 0.43 |
| YDSFDSEDYPAALPNHKPKGTFKD [ETS1] |  |  | 5.05 ± 0.17 | 4.83 ± 0.22 |
| YEFNPDFLEEAHEWNQKRARKAMR [N4BP2L1] |  |  | 3.88 ± 0.2 | 4.19 ± 0.29 |
| YESEILPSTPNPQPPSCQGEAAGS [DUSP5] |  |  | 5.24 ± 0.13 | 5.296 ± 0.002 |
| YGFSLKTVQGKKGVYMTDITPQGV [PDZK1] |  |  |  | 2.5 ± 0.68 |
| YGLKPLTPNSKYVKLNVGGSLHYT [KCTD13] |  |  | 2.33 ± 0.23 | 2.49 ± 0.19 |
| YIPRDVDETGITVASLERFSTYTS [ZC3H15] |  |  | 2.65 ± 0.16 | 2.96 ± 0.16 |
| YLASLCMCFGPKKVKPAEAETAGA [SLC29A1] |  |  | 2.6 ± 0.28 | 2.83 ± 0.23 |
| YLRPQSNYSSSQDALISVSYTIIT [OR10K2] |  |  | 2.73 ± 0.7 | 2.68 ± 0.99 |
| YMTKPSKSLLPHLKTGNSSPGIGA [RTP4] |  |  | 3.13 ± 0.13 | 3.22 ± 0.27 |
| YPEEADGTLDCISMALTCTFNRWG [RBBP5] |  |  | 2.19 ± 0.23 | 2.11 ± 0.28 |
| YPSLQAMGWFNNEVGSMKIQSGAW [CRYBA1] |  |  | 1.99 ± 0.41 | 2.45 ± 0.17 |
| YQHLEEDMKSLKQVLEMKNQQIHE [MTUS2] |  |  | 4.07 ± 0.11 | 4.27 ± 0.36 |
| YQPEPFACGIEHCSVHYVSDSGDG [FBXO34] |  |  | 2.93 ± 0.27 | 3.04 ± 0.26 |
| YQRPQDSEDMWGDEDFTFGAYQPT [FBF1] |  |  | 3.2 ± 0.55 | 3.76 ± 0.48 |
| YSLTTSSTHKRSSLRKVKLVRPPQ [RAB40B] |  |  | 3.42 ± 0.24 | 3.63 ± 0.32 |
| YSLVLELSDSGAFRRSLHDPDGLV [APMAP] |  |  | 2.28 ± 0.48 | 2.14 ± 0.38 |
| YVKYQVAIHQDPPDECGKTEFTRF [ATE1] |  |  | 2.4 ± 0.2 | 2.56 ± 0.5 |
| YYHRGHVDPANDTFDIDPMVVTDC [MCOLN1] |  |  | 3.63 ± 0.21 | 3.78 ± 0.14 |
